According to the supplement of paper PMC10567573:

Experiment: protein stability index of a GFP-peptide fusion (GPS, HEK-293T) (PSI 1-6); higher = more stable
[1] = parent: NP_002788.1, c terminus: native
[2] = parent: NP_006221.1, c terminus: native
[3] = parent: NP_009172.2, c terminus: native
[4] = parent: NP_015628.1, c terminus: native
[5] = parent: NP_116010.1, c terminus: native

B1: PTPRD WT (peptide)
chain: ELDELLKEISRKRRSIRYGREVEL
protein stability index (parent: IOH82190_126, c terminus: a fixed tail appended): 2.18

B2: PTPRD WT (peptide)
chain: PVVSMDLDPQPITDEEEGLIWVVG
protein stability index (parent: IOH82190_140, c terminus: a fixed tail appended): 3.88

B3: PTPRD WT (peptide)
chain: LTKLREMGREKCHQYWPAERSARY
protein stability index (parent: IOH82190_223, c terminus: a fixed tail appended): 2.36

B4: CDKL4 WT (peptide)
chain: AVKKFVESEDDPVVKKIALREIRM
protein stability index (parent: IOH82195_6, c terminus: a fixed tail appended): 2.87

B5: PPEF2 WT (peptide)
chain: AFKAAALIQRWYRRYVARLEMRRR
protein stability index (parent: IOH82202_4, c terminus: a fixed tail appended): 3.14

B6: PPEF2 WT (peptide)
chain: FIPSSHNDRDFLTRIFTEDRFAQD
protein stability index (parent: IOH82202_13, c terminus: a fixed tail appended): 2.05

B7: PPEF2 WT (peptide)
chain: DHSGFISLDEFRQTWKLFSSHMNI
protein stability index (parent: IOH82202_112, c terminus: a fixed tail appended): 1.7

B8: RIPK4 WT (peptide)
chain: RERMELLEEAKKMEMAKFRYILPV
protein stability index (parent: IOH82264_11, c terminus: a fixed tail appended): 2.38

B9: RIPK4 WT (peptide)
chain: AAWQGHLPIVKLLAKQPGVSVNAQ
protein stability index (parent: IOH82264_97, c terminus: a fixed tail appended): 2.35

B10: RIPK4 WT (peptide)
chain: VSVNAQTLDGRTPLHLAAQRGHYR
protein stability index (parent: IOH82264_100, c terminus: a fixed tail appended): 3.37

B11: RIPK4 WT (peptide)
chain: VIDLFDEQGLSALHLAAQGRHAQT
protein stability index (parent: IOH82264_122, c terminus: a fixed tail appended): 2.72

B12: TRIB1 WT (peptide)
chain: SYVRSRKRLREEEAARLFKQIVSA
protein stability index (parent: IOH82269_29, c terminus: a fixed tail appended): 2.13

B13: TRIB1 WT (peptide)
chain: EIGTSDQIVPEYQEDSDISSFFC
protein stability index (parent: IOH82269_63, c terminus: native): 2.87

B14: PSMB5 WT (peptide)
chain: DGWIRVSSDNVADLHEKYSGSTP
protein stability index [1]: 2.42

B15: PSMB5 addA (peptide)
chain: DGWIRVSSDNVADLHEKYSGSTPA
protein stability index [1]: 2.51

B16: PSMB5 addT (peptide)
chain: DGWIRVSSDNVADLHEKYSGSTPT
protein stability index [1]: 3.53

B17: POLD2 WT (peptide)
chain: CQPISFSGFGAEDDDLGGLGLGP
protein stability index [2]: 2.27

B18: POLD2 addA (peptide)
chain: CQPISFSGFGAEDDDLGGLGLGPA
protein stability index [2]: 2.54

B19: POLD2 addT (peptide)
chain: CQPISFSGFGAEDDDLGGLGLGPT
protein stability index [2]: 2.6

B20: SNF8 WT (peptide)
chain: LPALFTDLYSQEITAEEAREALP
protein stability index [3]: 2.74

B21: SNF8 addA (peptide)
chain: LPALFTDLYSQEITAEEAREALPA
protein stability index [3]: 3.42

B22: SNF8 addT (peptide)
chain: LPALFTDLYSQEITAEEAREALPT
protein stability index [3]: 3.79

B23: TRPA1 WT (peptide)
chain: EQRNSRWNTVLRAVKAKTHHLEP
protein stability index [4]: 3.03

B24: TRPA1 addA (peptide)
chain: EQRNSRWNTVLRAVKAKTHHLEPA
protein stability index [4]: 4.26

B25: TRPA1 addT (peptide)
chain: EQRNSRWNTVLRAVKAKTHHLEPT
protein stability index [4]: 4.19

B26: BEX2 WT (peptide)
chain: HSLRAVSTDPPHHDHHDEFCLMP
protein stability index [5]: 2.48

B27: BEX2 addA (peptide)
chain: HSLRAVSTDPPHHDHHDEFCLMPA
protein stability index [5]: 3.18
